The values that follow come from US20250320277A1 (ALBERT EINSTEIN COLLEGE OF MEDICINE, published 2025).

Experiment [1] concerns the target T1, MAYV p62-E1 (Mayaro virus (BeAr 20290)).
T1 construct: extracellular domain
Nature of the experiment: ELISA, plate-coated p62-E1, eight-point mAb dilution.

Experiment [2] concerns the target T1, MAYV p62-E1. Nature of the experiment: BLI, […], global 1:1 fit; […].
Experiment [3] deals with T1, MAYV p62-E1.

B1: DC2.M17 (antibody, V domains shown)
VH: EVQLVESGSELKKPGASVRVSCEASGYSFTSHTIVWMRQAPGQGLECLGWINTNTGNPTYAQGFTGRFVFSLDTSVSTAYLQISSLKAADTAVYYCARVLKCLGGSASCSGHGYYDYGMAVWGQGTTVTVSS
VL: DIVLTQSPLSLPVTPGEPASISCRSSQSLLHSNGYNFLHWYLQKPGQSPQLLIYLGSIRASGVPDRFSGSGSGTDFTLKISRVEAEDVGVYYCMQALQTFMYTFGQGTKLEIK
With B1, the midpoint of the response with MAYV p62-E1 [1], the EC50, lay at 1.9 nM.

B2: DC2.M301 (antibody, V domains shown)
VH: QVQLVQSGAEVKKPGAAVKVSCKASGYTFSGYYIHWVRQAPGQGLEWMGWINPNSGGTDFAQKFQGRVTMTRDTSISTAYMELSRLRSDDTAVYLCSRDPGYTYGYPLGYWGQGTLVTVSS
VL: ETTLTQSPGTLSLSPGERATLSCRASQSVSSSYLAWYQQKPGQAPRLLIYGTSSRATGIPDRFSGRGSGTDFTLTISRLEPEDFAVYYCQQYGNSPPYTFGQGTKVDIK
B2: the midpoint of the response in the experiment with MAYV p62-E1 [1], the EC50, lay at 4.6 nM. Besides, the affinity in the experiment with MAYV p62-E1 [2], expressed as Kd, was 15 nM. In the experiment with MAYV p62-E1 [3], this molecule had a dissociation rate constant (koff) of 0.0047 s⁻¹ and a kon of 300000 M⁻¹ s⁻¹.

B3: DC2.M287 (antibody, V domains shown)
VH: EVQLVESGGGLVQPGGSLRLSCAASGFTFRDYWMIWVRQTPGKGLEWVANINRNGNEKHYVDSLKGRFTISRDNTKNSLYLQVNGLSAEDTAVYYCVRDSSPSFGPGNYYDAFDIWGQGTTVTVSS
VL: DIRVTQSPSSLSASVGDRVTITCRASQDIRNEVGWYQQKPGQAPKVLIFAASTLQSGVPSRFRGSGSGTVFTLTISSLQPEDLATYYCLQDFNYPRTFGQGTKVDIK
Regarding B3, in the experiment with MAYV p62-E1 [1], the EC50 came to 220 nM. In other words, the sub-micromolar range.
